Source: publication PMC12144868, “New Transferrin Receptor‐Targeting Conjugate Effectively Delivers DNA to Mouse Brain”

Target: human transferrin receptor (hTfR), extracellular domain (Homo sapiens, UniProt P02786 89-760)
Assay: SPR; ka 6.30E+06; kd 1.38E-04 s-1; SPR Biacore T100, SA chip, biotinylated aptamer heated to 65°C then cooled to 37°C before immobilization; five hTfR concentrations at 10 uL/min; 1:1 model with
Details: protein: commercial; tags: N-terminal tag (His implied by Ni-NTA; tag name cut in the text); chain copies: 2; label: biotin

Sequence of human transferrin receptor (hTfR), extracellular domain (P02786 89-760): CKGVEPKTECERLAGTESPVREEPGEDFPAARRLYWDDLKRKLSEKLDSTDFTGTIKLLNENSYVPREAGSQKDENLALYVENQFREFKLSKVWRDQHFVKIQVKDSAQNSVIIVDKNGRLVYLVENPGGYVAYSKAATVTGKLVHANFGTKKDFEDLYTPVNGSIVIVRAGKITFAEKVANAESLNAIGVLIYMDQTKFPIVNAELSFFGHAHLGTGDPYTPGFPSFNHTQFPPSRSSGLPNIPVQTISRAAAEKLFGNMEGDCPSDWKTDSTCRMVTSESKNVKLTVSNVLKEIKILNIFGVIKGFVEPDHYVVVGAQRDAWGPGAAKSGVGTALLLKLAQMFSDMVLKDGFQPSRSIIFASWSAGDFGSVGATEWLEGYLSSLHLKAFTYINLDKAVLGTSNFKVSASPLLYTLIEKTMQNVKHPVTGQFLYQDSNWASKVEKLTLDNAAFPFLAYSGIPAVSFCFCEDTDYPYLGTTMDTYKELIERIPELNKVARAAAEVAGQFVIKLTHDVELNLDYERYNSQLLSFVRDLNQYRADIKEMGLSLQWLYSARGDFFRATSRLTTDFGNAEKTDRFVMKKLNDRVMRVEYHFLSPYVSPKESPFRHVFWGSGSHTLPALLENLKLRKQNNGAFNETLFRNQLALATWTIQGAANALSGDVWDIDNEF

UUUAUUCACAUUUUUGAAUUGA (XNA, all U and C 2'F-2'-deoxy (i2FU, i2FC); A and G ribo) [tTfR aptamer 22-nt (truncated)]
Kd: 0.022 nM
